One block for each binder: values may come before it. Numbered stars: 1 amine (or outer) side, 2 acyl side, 3 side chain; on linkers, the order of the positions; unused ones are H or OH. Bridge positions count the residues as written; N and C are the ends. Square brackets hold non-standard residues; d marks the D form. Ends that are not written are not given here. TATA = O=C(CC[*:1])N1CN(C(=O)CC[*:2])CN(C(=O)CC[*:3])C1; fluorescein = fluorescein (fluorescent label, [FI]); 2Nal = N[C@@H](Cc1ccc2ccccc2c1)C(=O)O; TBMB = c1c(C[*:1])cc(C[*:3])cc1C[*:2]; hArg = N=C(N)NCCCC[C@H](N)C(=O)O; Tle = CC(C)(C)[C@H](N)C(=O)O; Sar = CNCC(=O)O
What was measured:
[1] = molecular target: T1, MT1-MMP Hemopexin domain (PEX) (UniProt P50281 319-511); assay: FP competition vs tracer 17-69-07-N040
T1 construct: domain: Hemopexin domain (PEX); Target of the fluorescence polarisation assays; also called hemopexin of MT1-MMP; MMP14
Excerpt: (§1) Here, a pre-formed complex of PEX with the fluorescent PEX-binding tracer is titrated with free, non-fluoresceinated bicyclic peptide. Since all 17-69-based peptides are expected to bind at the same site, the titrant will displace the fluorescent tracer from PEX. Dissociation of the complex can be measured quantitatively, and the Kd of the competitor (titrant) to the target protein determined. The advantage of the competition method is that the affinities of non-fluoresceinated bicyclic peptides can be determined accurately and rapidly.
(§2) Subsequently, the non-fluorescent competitor bicyclic peptide (usually just the bicycle core sequence) is titrated, such that it displaces the fluorescent tracer from the target protein. The displacement of the tracer is measured and associated with a drop in fluorescence polarisation. The drop in fluorescence polarisation is proportional to the fraction of target protein bound with the non-fluorescent titrant, and thus is a measure of the affinity of titrant to target protein.
(§3) The raw data is fit to the analytical solution of the cubic equation that describes the equilibria between fluorescent tracer, titrant, and binding protein. The fit requires the value of the affinity of fluorescent tracer to the target protein, which can be determined separately by direct binding FP experiments (see previous section).

[2] = molecular target: T1, MT1-MMP Hemopexin domain (PEX); assay: FP competition vs tracer 17-69-07-N041
Excerpt: as §1, §2, §3

[3] = molecular target: T1, MT1-MMP Hemopexin domain (PEX); assay: FP competition, plate 1, tracer not named
[4] = molecular target: T1, MT1-MMP Hemopexin domain (PEX); assay: FP direct binding
[5] = molecular target: T1, MT1-MMP Hemopexin domain (PEX); assay: FP competition vs tracer 17-88-N006
Experimental: as §2, §3

[6] = molecular target: T2, human MT1 MMP14 protein, hemopexin domain (obtained from Merck Millipore) (human, UniProt P50281 319-511, limits assumed, randomly biotinylated (EZ-Link Sulfo-NHS-LC-LC-Biotin)); assay: SPR, biotinylated target on streptavidin chip
T2 construct: domain: hemopexin domain; Target of the SPR assay, captured on streptavidin; also called biotinylated MT1 MMP14
Experimental: Streptavidin was immobilized on the chip using standard amine-coupling chemistry at 25° C. with HBS-N (10 mM HEPES, 0.15 M NaCl, pH 7.4) as the running buffer. […] Buffer was changed to PBS/0.05% Tween 20 and a dilution series of the peptides was prepared in this buffer with a final DMSO concentration of 0.5%. […] Data were corrected for DMSO excluded volume effects. All data were double-referenced for blank injections and reference surface using standard processing procedures and data processing and kinetic fitting were performed using Scrubber software, version 2.0c (BioLogic Software).

Kd [2]: > 430 nM
B2: 17-126-03 (peptide)
peptide: ACVEEFYPCDHPLYSCA
modifications: linker 2-9-16 via TATA

Ki [3]: 80 nM
B3: BCY11149 (peptide)
peptide: Ac-LPPC[Tle][hArg]ECALLFP[hArg]TC
modifications: linker 4-8-16 via TATA

Kd [2]: > 282 nM
B4: 17-126-02 (peptide)
peptide: ACEEQFYPCTHALYTCA
modifications: linker 2-9-16 via TATA

Kd [2]: > 316 nM
B11: 17-126-01 (peptide)
peptide: ACEEEFYPCGHPLYVCA
modifications: linker 2-9-16 via TATA

Kd [1]: > 139 nM
B13: 17-126-25 (peptide)
peptide: ACEEAFYPCHHPLYRCA
modifications: linker 2-9-16 via TATA (inferred)

Kd [6]: 400 nM
B14: BCY10223 (peptide)
peptide: Ac-LPPCV[hArg]ECALL[2Nal]P[hArg]TC
modifications: linker 4-8-16 via TATA

Kd [1]: 200 nM
B17: 17-126-24 (peptide)
peptide: ACDEQFYPCNHRLNTCA
modifications: linker 2-9-16 via TATA (inferred)

Second part, the binder before the results:

B1: 17-120-05 (peptide)
peptide: ACADECRLLFPKTCA
modifications: linker 2-6-14 via TATA
Kd [1]: > 280 nM

B5: 17-69-07-N041 (peptide)
peptide: fluorescein-G[Sar][Sar][Sar][Sar][Sar]ACYNEFACEDFYDICA
modifications: linker 8-14-21 via TBMB
notes: fluorescent tracer
Kd [4]: 3.4 nM

B6: 17-122-04 (peptide)
peptide: ACDSPEECFYPLECA
modifications: linker 2-8-14 via TATA
Kd [1]: > 2100 nM

B7: 17-69-12-N004 (peptide)
peptide: fluorescein-G[Sar][Sar][Sar][Sar][Sar]ACMNQFGCEDFYDICA
modifications: linker 8-14-21 via TBMB
notes: fluorescent tracer
Kd [4]: 1 nM

B8: 17-88-N006 (peptide)
peptide: ACPYSWETCLFGDYRCA[Sar][Sar][Sar][Sar][Sar][Sar]K(fluorescein)
modifications: linker 2-9-16 via TBMB
Kd [4]: 14 nM

B9: 17-88-226-N002 (peptide)
peptide: ACPYDWATCLFGDYRCA[Sar][Sar][Sar][Sar][Sar][Sar]K(fluorescein)
modifications: linker 2-9-16 via TBMB
Kd [4]: 50 nM

B10: 17-120-21 (peptide)
peptide: ACYEECRLLFPRTCA
modifications: linker 2-6-14 via TATA
Kd [5]: > 82.8 nM

B12: 17-69-07-N040 (peptide)
peptide: ACYNEFGCEDFYDICA[Sar][Sar][Sar][Sar][Sar][Sar]K(fluorescein)
modifications: linker 2-8-15 via TBMB
notes: fluorescent tracer
Kd [4]: 0.52 nM

B15: 17-122-03 (peptide)
peptide: ACKEPQECFYPLKCA
modifications: linker 2-8-14 via TATA
Kd [1]: > 378 nM

B16: 17-122-02 (peptide)
peptide: ACLEPDECFYPMECA
modifications: linker 2-8-14 via TATA
Kd [1]: > 929 nM
